Each molecule was assayed on plasma proteins (assay: Plasma proteins modulated between baseline and day 28 in responders (CR, VGPR, PR; n = 19), Example 6 (Table 13)). Settings: plasma protein (OLINK NPX); responders (CR, VGPR, PR; n = 19); itacitinib 200 mg or 300 mg QD with corticosteroids; day 28 vs baseline.
Format: in vivo, human
Outline: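 Plasma at baseline/screening and day 28 profiled for >1000 proteins by OLINK proximity extension assay, reported as NPX (log2). Steroid-naive and steroid-refractory patients pooled. Paired and unpaired t tests, ANOVA and Pearson correlation applied; significance at P<0.05.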

| Molecule | Fold Change, Increased Expression from Baseline to Day 28 | Fold Change, Decreased Expression from Baseline to Day 28 |
| --- | --- | --- |
| PRTG (protein, UniProt Q2VWP7 36-1150, looked up) Protogenin: FSELSFVKEPQDVTVTRKDPVVLDCQAHGEVPIKVTWLKNGAKMSENKRIEVLSNGSLYISEVEGRRGEQSDEGFYQCLAMNKYGAILSQKAHLALSTISAFEVQPISTEVHEGGVARFACKISSHPPAVITWEFNRTTLPMTMDRITALPTGVLQIYDVSQRDSGNYRCIAATVAHRRKSMEASLTVIPAKESKSFHTPTIIAGPQNITTSLHQTVVLECMATGNPKPIISWSRLDHKSIDVFNTRVLGNGNLMISDVRLQHAGVYVCRATTPGTRNFTVAMATLTVLAPPSFVEWPESLTRPRAGTARFVCQAEGIPSPKMSWLKNGRKIHSNGRIKMYNSKLVINQIIPEDDAIYQCMAENSQGSILSRARLTVVMSEDRPSAPYNVHAETMSSSAILLAWERPLYNSDKVIAYSVHYMKAEGLNNEEYQVVIGNDTTHYIIDDLEPASNYTFYIVAYMPMGASQMSDHVTQNTLEDVPLRPPEISLTSRSPTDILISWLPIPAKYRRGQVVLYRLSFRLSTENSIQVLELPGTTHEYLLEGLKPDSVYLVRITAATRVGLGESSVWTSHRTPKATSVKAPKSPELHLEPLNCTTISVRWQQDVEDTAAIQGYKLYYKEEGQQENGPIFLDTKDLLYTLSGLDPRRKYHVRLLAYNNIDDGYQADQTVSTPGCVSVRDRMVPPPPPPHHLYAKANTSSSIFLHWRRPAFTAAQIINYTIRCNPVGLQNASLVLYLQTSETHMLVQGLEPNTKYEFAVRLHVDQLSSPWSPVVYHSTLPEAPAGPPVGVKVTLIEDDTALVSWKPPDGPETVVTRYTILYASRKAWIAGEWQVLHREGAITMALLENLVAGNVYIVKISASNEVGEGPFSNSVELAVLPKETSESNQRPKRLDSADAKVYSGYYHLDQKSMTGIAVGVGIALTCILICVLILIYRSKARKSSASKTAQNGTQQLPRTSASLASGNEVGKNLEGAVGNEESLMPMIMPNSFIDAKGGTDLIINSYGPIIKNNSKKKWFFFQDSKKIQVEQPQRRFTPAVCFYQPGTTVLISDEDSPSSPGQTTSFSRPFGVAADTEHSANSEGSHETGDSGRFSHESNDEIHLSSVISTTPPNL | 1.1026 | – |
| XPNPEP2 (protein, UniProt O43895 22-649, looked up) Xaa-Pro aminopeptidase 2: HTKPVDLGGQDVRNCSTNPPYLPVTVVNTTMSLTALRQQMQTQNLSAYIIPGTDAHMNEYIGQHDERRAWITGFTGSAGTAVVTMKKAAVWTDSRYWTQAERQMDCNWELHKEVGTTPIVTWLLTEIPAGGRVGFDPFLLSIDTWESYDLALQGSNRQLVSITTNLVDLVWGSERPPVPNQPIYALQEAFTGSTWQEKVSGVRSQMQKHQKVPTAVLLSALEETAWLFNLRASDIPYNPFFYSYTLLTDSSIRLFANKSRFSSETLSYLNSSCTGPMCVQIEDYSQVRDSIQAYSLGDVRIWIGTSYTMYGIYEMIPKEKLVTDTYSPVMMTKAVKNSKEQALLKASHVRDAVAVIRYLVWLEKNVPKGTVDEFSGAEIVDKFRGEEQFSSGPSFETISASGLNAALAHYSPTKELNRKLSSDEMYLLDSGGQYWDGTTDITRTVHWGTPSAFQKEAYTRVLIGNIDLSRLIFPAATSGRMVEAFARRALWDAGLNYGHGTGHGIGNFLCVHEWPVGFQSNNIAMAKGMFTSIEPGYYKDGEFGIRLEDVALVVEAKTKYPGSYLTFEVVSFVPYDRNLIDVSLLSPEHLQYLNRYYQTIREKVGPELQRRQLLEEFEWLQQHTEPLA | 1.285 | – |
| SKAP1 (protein, UniProt Q86WV1 1-359, looked up) Src kinase-associated …: MQAAALPEEIRWLLEDAEEFLAEGLRNENLSAVARDHRDHILRGFQQIKARYYWDFQPQGGDIGQDSSDDNHSGTLGLSLTSDAPFLSDYQDEGMEDIVKGAQELDNVIKQGYLEKKSKDHSFFGSEWQKRWCVVSRGLFYYYANEKSKQPKGTFLIKGYGVRMAPHLRRDSKKESCFELTSQDRRSYEFTATSPAEARDWVDQISFLLKDLSSLTIPYEEDEEEEEKEETYDDIDGFDSPSCGSQCRPTILPGSVGIKEPTEEKEEEDIYEVLPDEEHDLEEDESGTRRKGVDYASYYQGLWDCHGDQPDELSFQRGDLIRILSKEYNMYGWWVGELNSLVGIVPKEYLTTAFEVEER | – | −1.8075 |
| NQO2 (protein, UniProt P16083 1-231, looked up) Ribosyldihydronicotinamide …: MAGKKVLIVYAHQEPKSFNGSLKNVAVDELSRQGCTVTVSDLYAMNLEPRATDKDITGTLSNPEVFNYGVETHEAYKQRSLASDITDEQKKVREADLVIFQFPLYWFSVPAILKGWMDRVLCQGFAFDIPGFYDSGLLQGKLALLSVTTGGTAEMYTKTGVNGDSRYFLWPLQHGTLHFCGFKVLAPQISFAPEIASEEERKGMVAAWSQRLQTIWKEEPIPCTAHWHFGQ | 1.0895 | – |
| PIK3AP1 (protein, UniProt Q6ZUJ8 1-805, looked up) Phosphoinositide 3-kinase …: MAASGVPRGCDILIVYSPDAEEWCQYLQTLFLSSRQVRSQKILTHRLGPEASFSAEDLSLFLSTRCVVVLLSAELVQHFHKPALLPLLQRAFHPPHRVVRLLCGVRDSEEFLDFFPDWAHWQELTCDDEPETYVAAVKKAISEDSGCDSVTDTEPEDEKVVSYSKQQNLPTVTSPGNLMVVQPDRIRCGAETTVYVIVRCKLDDRVATEAEFSPEDSPSVRMEAKVENEYTISVKAPNLSSGNVSLKIYSGDLVVCETVISYYTDMEEIGNLLSNAANPVEFMCQAFKIVPYNTETLDKLLTESLKNNIPASGLHLFGINQLEEEDMMTNQRDEELPTLLHFAAKYGLKNLTALLLTCPGALQAYSVANKHGHYPNTIAEKHGFRDLRQFIDEYVETVDMLKSHIKEELMHGEEADAVYESMAHLSTDLLMKCSLNPGCDEDLYESMAAFVPAATEDLYVEMLQASTSNPIPGDGFSRATKDSMIRKFLEGNSMGMTNLERDQCHLGQEEDVYHTVDDDEAFSVDLASRPPVPVPRPETTAPGAHQLPDNEPYIFKVFAEKSQERPGNFYVSSESIRKGPPVRPWRDRPQSSIYDPFAGMKTPGQRQLITLQEQVKLGIVNVDEAVLHFKEWQLNQKKRSESFRFQQENLKRLRDSITRRQREKQKSGKQTDLEITVPIRHSQHLPAKVEFGVYESGPRKSVIPPRTELRRGDWKTDSTSSTASSTSNRSSTRSLLSVSSGMEGDNEDNEVPEVTRSRSPGPPQVDGTPTMSLERPPRVPPRAASQRPPTRETFHPPPPVPPRGR | – | −1.7193 |
| SIGLEC10 (protein, UniProt Q96LC7 17-697, looked up) Sialic acid-binding Ig-like …: MDGRFWIRVQESVMVPEGLCISVPCSFSYPRQDWTGSTPAYGYWFKAVTETTKGAPVATNHQSREVEMSTRGRFQLTGDPAKGNCSLVIRDAQMQDESQYFFRVERGSYVRYNFMNDGFFLKVTALTQKPDVYIPETLEPGQPVTVICVFNWAFEECPPPSFSWTGAALSSQGTKPTTSHFSVLSFTPRPQDHNTDLTCHVDFSRKGVSAQRTVRLRVAYAPRDLVISISRDNTPALEPQPQGNVPYLEAQKGQFLRLLCAADSQPPATLSWVLQNRVLSSSHPWGPRPLGLELPGVKAGDSGRYTCRAENRLGSQQRALDLSVQYPPENLRVMVSQANRTVLENLGNGTSLPVLEGQSLCLVCVTHSSPPARLSWTQRGQVLSPSQPSDPGVLELPRVQVEHEGEFTCHARHPLGSQHVSLSLSVHYSPKLLGPSCSWEAEGLHCSCSSQASPAPSLRWWLGEELLEGNSSQDSFEVTPSSAGPWANSSLSLHGGLSSGLRLRCEAWNVHGAQSGSILQLPDKKGLISTAFSNGAFLGIGITALLFLCLALIIMKILPKRRTQTETPRPRFSRHSTILDYINVVPTAGPLAQKRNQKATPNSPRTPLPPGAPSPESKKNQKKQYQLPSFPEPKSSTQAPESQESQEELHYATLNFPGVRPRPEARMPKGTQADYAEVKFQ | – | −1.4974 |

Source: US12099068B2, “Biomarkers for graft-versus-host disease” (Incyte Corporation, priority 2018, dated 2024)
